From patent US9993529B2, “Stable formulations of a hyaluronan-degrading enzyme” (Halozyme, Inc., priority 2011, dated 2018)

Assay: RP-HPLC insulin apparent solubility / percent recovery (content)
Settings: 7 days at 2-8° C.
Experimental: Apparent solubility was measured as the percent insulin recovery as compared to the initial formulations/conditions.
Samples were prepared by withdrawing 100 μL from each vial at every time point and centrifuging prior to loading. Samples were stored in an autosampler at 4° C. prior to use, and were considered stable for 3 days after preparation. All samples were tested in duplicate.
For insulin, 20 μL was injected for each HPLC run.
To determine the apparent solubility, the peak area of insulin/insulin analog main peak and desamido peak were integrated and combined together to calculate the percentage relative to the standards. […] The data were processed using Design-Expert® 7.0 (StatEase) and the “historical data” feature. Insulin percent purity was expressed as the percent of main insulin versus all insulin species.

**Q.** With “Regular Insulin: mature human insulin, SEQ ID NOS: 103 and 104” as the substance, how does the “Solubility of regular Insulin” value (0.2% methylparaben + […] m-cresol, pH 6.6, NaCl 50 mM) read?
**A.** 15.3%

**Q.** And the “Solubility of regular Insulin” value (0.2% methylparaben + […] m-cresol, pH 6.6, NaCl 80 mM)?
**A.** 9.0%

**Q.** And the “Solubility of regular Insulin” value (0.2% methylparaben + […] m-cresol, pH 6.6, NaCl 140 mM)?
**A.** 5.8%

**Q.** What about the “Solubility of regular Insulin” value (0.2% methylparaben + […] m-cresol, pH 6.8, NaCl 50 mM) of the same substance?
**A.** 34.1%

**Q.** What about the “Solubility of regular Insulin” value (0.2% methylparaben + […] m-cresol, pH 6.8, NaCl 110 mM) of the same substance?
**A.** 11.4%

**Q.** And the “Solubility of regular Insulin” value (0.2% methylparaben + […] m-cresol, pH 7.0, NaCl 50 mM)?
**A.** 86.9%

**Q.** What about the “Solubility of regular Insulin” value (0.2% methylparaben + […] m-cresol, pH 7.0, NaCl 80 mM) of the same substance?
**A.** 46.6%

**Q.** And the “Solubility of regular Insulin” value (0.2% methylparaben + […] m-cresol, pH 7.0, NaCl 140 mM)?
**A.** 15.9%

**Q.** And the “Solubility of regular Insulin” value (0.2% methylparaben + […] m-cresol, pH 7.2, NaCl 80 mM)?
**A.** 90.6%

**Q.** What about the “Solubility of regular Insulin” value (0.2% methylparaben + […] m-cresol, pH 7.2, NaCl 110 mM) of the same substance?
**A.** 47.1%

**Q.** And the “Solubility of regular Insulin” value (0.2% methylparaben + […] m-cresol, pH 7.2, NaCl 140 mM)?
**A.** 32.9%

**Q.** What about the “Solubility of regular Insulin” value (0.2% methylparaben + […] m-cresol, pH 7.4, NaCl 50 mM) of the same substance?
**A.** 98.1%

**Q.** And the “Solubility of regular Insulin” value (0.2% methylparaben + […] m-cresol, pH 7.4, NaCl 80 mM)?
**A.** 97.7%

**Q.** What about the “Solubility of regular Insulin” value (0.2% methylparaben + […] m-cresol, pH 7.4, NaCl 110 mM) of the same substance?
**A.** 94.6%

**Q.** And the “Solubility of regular Insulin” value (0.2% methylparaben + […] m-cresol, pH 7.4, NaCl 140 mM)?
**A.** 59.1%

**Q.** What about the “Solubility of regular Insulin” value (0.2% methylparaben + […] m-cresol, pH 7.6, NaCl 50 mM) of the same substance?
**A.** 98.1%

**Q.** What about the “Solubility of regular Insulin” value (0.2% methylparaben + […] m-cresol, pH 7.6, NaCl 80 mM) of the same substance?
**A.** 97.9%

**Q.** And the “Solubility of regular Insulin” value (0.2% methylparaben + […] m-cresol, pH 7.6, NaCl 140 mM)?
**A.** 95.4%

**Q.** And the “Solubility of regular Insulin” value (0.2% phenol + […] m-cresol, pH 6.6, NaCl 50 mM)?
**A.** 26.8%

**Q.** What about the “Solubility of regular Insulin” value (0.2% phenol + […] m-cresol, pH 6.6, NaCl 80 mM) of the same substance?
**A.** 8.7%

**Q.** And the “Solubility of regular Insulin” value (0.2% phenol + […] m-cresol, pH 6.6, NaCl 110 mM)?
**A.** 6.5%

**Q.** And the “Solubility of regular Insulin” value (0.2% phenol + […] m-cresol, pH 6.6, NaCl 140 mM)?
**A.** 5.8%

**Q.** What about the “Solubility of regular Insulin” value (0.2% phenol + […] m-cresol, pH 6.8, NaCl 50 mM) of the same substance?
**A.** 38.4%

**Q.** What about the “Solubility of regular Insulin” value (0.2% phenol + […] m-cresol, pH 6.8, NaCl 80 mM) of the same substance?
**A.** 17.1%

**Q.** And the “Solubility of regular Insulin” value (0.2% phenol + […] m-cresol, pH 6.8, NaCl 140 mM)?
**A.** 6.5%

**Q.** And the “Solubility of regular Insulin” value (0.2% phenol + […] m-cresol, pH 7.0, NaCl 50 mM)?
**A.** 100.3%

**Q.** What about the “Solubility of regular Insulin” value (0.2% phenol + […] m-cresol, pH 7.0, NaCl 80 mM) of the same substance?
**A.** 35.7%

**Q.** And the “Solubility of regular Insulin” value (0.2% phenol + […] m-cresol, pH 7.0, NaCl 110 mM)?
**A.** 17.7%

**Q.** What about the “Solubility of regular Insulin” value (0.2% phenol + […] m-cresol, pH 7.0, NaCl 140 mM) of the same substance?
**A.** 11.6%

**Q.** What about the “Solubility of regular Insulin” value (0.2% phenol + […] m-cresol, pH 7.2, NaCl 80 mM) of the same substance?
**A.** 92.2%

**Q.** What about the “Solubility of regular Insulin” value (0.2% phenol + […] m-cresol, pH 7.2, NaCl 110 mM) of the same substance?
**A.** 37.4%

**Q.** And the “Solubility of regular Insulin” value (0.2% phenol + […] m-cresol, pH 7.2, NaCl 140 mM)?
**A.** 18.9%

**Q.** What about the “Solubility of regular Insulin” value (0.2% phenol + […] m-cresol, pH 7.4, NaCl 80 mM) of the same substance?
**A.** 99.2%

**Q.** What about the “Solubility of regular Insulin” value (0.2% phenol + […] m-cresol, pH 7.4, NaCl 110 mM) of the same substance?
**A.** 87.8%

**Q.** And the “Solubility of regular Insulin” value (0.2% phenol + […] m-cresol, pH 7.4, NaCl 140 mM)?
**A.** 40.6%

**Q.** And the “Solubility of regular Insulin” value (0.2% phenol + […] m-cresol, pH 7.6, NaCl 80 mM)?
**A.** 99.2%

**Q.** And the “Solubility of regular Insulin” value (0.2% phenol + […] m-cresol, pH 7.6, NaCl 110 mM)?
**A.** 98.5%

**Q.** What about the “Solubility of regular Insulin” value (0.2% phenol + […] m-cresol, pH 7.6, NaCl 140 mM) of the same substance?
**A.** 82.2%

**Q.** What about the “Solubility of regular Insulin” value ([…] phenol + […] m-cresol, pH 6.6, NaCl 50 mM) of the same substance?
**A.** 31.2%

**Q.** And the “Solubility of regular Insulin” value ([…] phenol + […] m-cresol, pH 6.6, NaCl 80 mM)?
**A.** 18.6%

**Q.** And the “Solubility of regular Insulin” value ([…] phenol + […] m-cresol, pH 6.6, NaCl 140 mM)?
**A.** 12.9%

**Q.** What about the “Solubility of regular Insulin” value ([…] phenol + […] m-cresol, pH 6.8, NaCl 50 mM) of the same substance?
**A.** 66.6%

**Q.** And the “Solubility of regular Insulin” value ([…] phenol + […] m-cresol, pH 6.8, NaCl 80 mM)?
**A.** 24.9%

**Q.** And the “Solubility of regular Insulin” value ([…] phenol + […] m-cresol, pH 7.0, NaCl 50 mM)?
**A.** 96.7%

**Q.** What about the “Solubility of regular Insulin” value ([…] phenol + […] m-cresol, pH 7.0, NaCl 80 mM) of the same substance?
**A.** 80.8%

**Q.** What about the “Solubility of regular Insulin” value ([…] phenol + […] m-cresol, pH 7.0, NaCl 110 mM) of the same substance?
**A.** 32.9%

**Q.** And the “Solubility of regular Insulin” value ([…] phenol + […] m-cresol, pH 7.0, NaCl 140 mM)?
**A.** 17.1%

**Q.** And the “Solubility of regular Insulin” value ([…] phenol + […] m-cresol, pH 7.2, NaCl 80 mM)?
**A.** 96.4%

**Q.** And the “Solubility of regular Insulin” value ([…] phenol + […] m-cresol, pH 7.2, NaCl 110 mM)?
**A.** 58.7%

**Q.** What about the “Solubility of regular Insulin” value ([…] phenol + […] m-cresol, pH 7.2, NaCl 140 mM) of the same substance?
**A.** 33.1%

**Q.** What about the “Solubility of regular Insulin” value ([…] phenol + […] m-cresol, pH 7.4, NaCl 50 mM) of the same substance?
**A.** 96.7%

**Q.** And the “Solubility of regular Insulin” value ([…] phenol + […] m-cresol, pH 7.4, NaCl 80 mM)?
**A.** 97.3%

**Q.** And the “Solubility of regular Insulin” value ([…] phenol + […] m-cresol, pH 7.4, NaCl 110 mM)?
**A.** 94.2%

**Q.** What about the “Solubility of regular Insulin” value ([…] phenol + […] m-cresol, pH 7.4, NaCl 140 mM) of the same substance?
**A.** 57.9%

**Q.** What about the “Solubility of regular Insulin” value ([…] phenol + […] m-cresol, pH 7.6, NaCl 50 mM) of the same substance?
**A.** 97.2%

**Q.** What about the “Solubility of regular Insulin” value ([…] phenol + […] m-cresol, pH 7.6, NaCl 80 mM) of the same substance?
**A.** 97.1%

**Q.** What about the “Solubility of regular Insulin” value ([…] phenol + […] m-cresol, pH 7.6, NaCl 110 mM) of the same substance?
**A.** 97.1%

**Q.** What about the “Solubility of regular Insulin” value ([…] phenol + […] m-cresol, pH 7.6, NaCl 140 mM) of the same substance?
**A.** 91.7%
